From US20220313780A1, “METHODS AND COMPOSITIONS FOR TREATING INFLAMMATORY CONDITIONS” (THE SCRIPPS RESEARCH INSTITUTE, priority 2019, published 2022)

Tests used:
[1] = biological target: T1, EPCR (Homo sapiens, UniProt Q9UNN8); assay: Caspase 1 activity assay in THP1 cells after blocking EPCR with antibody RCR-252; assay type: cell-based; conditions: RCR-252 50 μg/mL before APC 4 μg/mL, TR47 50 μM or P3R 50 μM
T1 construct: endogenous in cells; host or cells: THP1-null (wildtype) cells, PMA-differentiated
T1 sequence (Q9UNN8 18-238): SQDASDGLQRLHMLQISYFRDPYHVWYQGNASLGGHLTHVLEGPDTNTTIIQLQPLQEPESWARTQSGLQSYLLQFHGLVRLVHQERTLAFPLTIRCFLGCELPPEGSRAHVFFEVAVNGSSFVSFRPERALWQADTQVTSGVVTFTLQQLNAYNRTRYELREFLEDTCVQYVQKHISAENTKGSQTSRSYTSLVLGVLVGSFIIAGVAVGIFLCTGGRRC
Experimental: THP1 or (A) NLRP3 deficient cells (THP1-defNLRP3) cells were plated at a final concentration of 1×10^6/mL in 96 well plates and incubated with PMA (0.5 μM) for 3 hours 37° C. in supplemented RPMI. Media was subsequently changed every 24 hours for 3 days. In brief, selected wells were treated with APC (4 μg/mL), TR47 (50 μM) or P3R (50 μM) for 1 hour, washed with DPBS, and incubated with LPS (1 μg/mL) for 3 hours at 37° C. in serum-free RPMI. After a DPBS wash, cells were incubated with ATP (5 mM) in the presence or absence of 10 μM YVAD (caspase 1 inhibitor) or 2.5 μM ZVAD (pan-caspase inhibitor) for 45 minutes at 37° C. […] Again, cells were washed with DPBS and incubated with ATP (5 mM) in the presence or absence of 10 μM YVAD (caspase 1 inhibitor) or 2.5 μM ZVAD (pan-caspase inhibitor) for 45 minutes prior to performing the caspase 1 activity following manufacturer's directions measuring luminescence. […] After a DPBS wash, cells were incubated with ATP (5 mM) in the presence or absence of 10 μM YVAD (caspase 1 inhibitor) or 2.5 μM ZVAD (pan-caspase inhibitor) for 45 minutes at 37° C., prior to performing the caspase 1 activity assay following manufacturer's directions measuring luminescence (relative luminescent units, RLU). […]

[2] = biological target: T2, PAR1 (Homo sapiens, UniProt P25116); assay: Caspase 1 activity assay in THP1 cells after inhibition of PAR1 (WEDE15, ATAP2, SCH79797); assay type: cell-based; conditions: TR47 50 μM or P3R 50 μM; for effect of PAR1 blocking antibody ATAP2 on reduction of caspase 1 activity: ATAP2 10 μg/mL for 15 minutes before APC 4 μg/mL; for effect of PAR1 small molecule antagonist SCH79797 on reduction of caspase 1 activity: SCH79797 20 μM for 20 minutes before APC 4 μg/mL; for effect of PAR1 blocking antibody WEDE15 on reduction of caspase 1 activity: WEDE15 20 μg/mL for 15 minutes before APC 4 μg/mL
T2 construct: endogenous in cells; host or cells: THP1-null (wildtype) cells, PMA-differentiated
T2 sequence (P25116 22-425): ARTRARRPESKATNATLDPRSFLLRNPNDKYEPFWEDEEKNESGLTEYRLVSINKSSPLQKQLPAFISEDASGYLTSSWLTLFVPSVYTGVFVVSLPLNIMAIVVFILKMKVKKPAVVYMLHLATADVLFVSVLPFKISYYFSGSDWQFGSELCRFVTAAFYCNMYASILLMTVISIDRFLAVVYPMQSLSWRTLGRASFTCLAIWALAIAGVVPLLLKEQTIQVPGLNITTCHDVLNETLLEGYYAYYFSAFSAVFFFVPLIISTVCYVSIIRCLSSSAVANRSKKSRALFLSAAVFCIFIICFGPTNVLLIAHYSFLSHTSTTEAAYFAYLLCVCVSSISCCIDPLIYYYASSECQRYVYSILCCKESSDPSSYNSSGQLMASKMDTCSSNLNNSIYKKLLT
Experimental: THP1 or (A) NLRP3 deficient cells (THP1-defNLRP3) cells were plated at a final concentration of 1×10^6/mL in 96 well plates and incubated with PMA (0.5 μM) for 3 hours 37° C. in supplemented RPMI. Media was subsequently changed every 24 hours for 3 days. In brief, selected wells were treated with APC (4 μg/mL), TR47 (50 μM) or P3R (50 μM) for 1 hour, washed with DPBS, and incubated with LPS (1 μg/mL) for 3 hours at 37° C. in serum-free RPMI. After a DPBS wash, cells were incubated with ATP (5 mM) in the presence or absence of 10 μM YVAD (caspase 1 inhibitor) or 2.5 μM ZVAD (pan-caspase inhibitor) for 45 minutes at 37° C. In (B), after PMA differentiation, select wells were treated with APC (4 μg/mL), TR47 (50 μM) or P3R (50 μM) for 1 hour, washed with DPBS, and incubated with LPS (1 μg/mL) for 3 hours at 37° C. in serum-free RPMI. Cells were washed with DPBS before being treated with the NLRP3 inhibitor MCC950 (10 μM) or DMSO for 30 minutes. Again, cells were washed with DPBS and incubated with ATP (5 mM) in the presence or absence of 10 μM YVAD (caspase 1 inhibitor) or 2.5 μM ZVAD (pan-caspase inhibitor) for 45 minutes prior to performing the caspase 1 activity following manufacturer's directions measuring luminescence. In (C-F) prior to APC, TR47 or P3R treatment, cells were incubated with antibodies or inhibitors. In (C) cell were incubated with the blocking EPCR antibody, RCR-252 (50 μg/mL); (D) mouse monoclonal antibody to PAR3, clone 19b (clonel9b; 25 μg/mL) for 30 minutes. In (E) cells were treated with either mouse monoclonal antibodies to PAR1, WEDE15 (20 μg/mL) or ATAP2 (10 μg/mL) for 15 minutes. In (F) cells were treated with the small molecule PAR1 inhibitor, SCH79797 (SCH; 20 μM) for 20 minutes. Following antibody or small molecule treatments (C-F) selected wells were treated with APC (4 μg/mL), TR47 (50 μM) or P3R (50 μM) for 1 hour, washed with DPBS, and incubated with LPS (1 μg/mL) for 3 hours at 37° C. in serum-free RPMI. After a DPBS wash, cells were incubated with ATP (5 mM) in the presence or absence of 10 μM YVAD (caspase 1 inhibitor) or 2.5 μM ZVAD (pan-caspase inhibitor) for 45 minutes at 37° C., prior to performing the caspase 1 activity assay following manufacturer's directions measuring luminescence (relative luminescent units, RLU). (A-F) Data points represent mean±SD of at least 3 independent experiments. *P<0.05 (vs. LPS+ATP); #P<0.05 (vs. LPS+ATP & APC, TR47 or P3R); ##P<0.005 (vs. LPS+ATP & APC, TR47 or P3R); n.s. not significant.
Caspase 1 assay. THP1-null (wildtype cells) or NLRP3-deficient THP1-(defNLRP3) cells were plated at a final concentration of 1×10^6/mL in 96 well plates and incubated with PMA (0.5 μM) for 3 hours 37° C. in supplemented RPMI. Media was subsequently changed every 24 hours for 3 days. Various subsets of wells were selected and cells were treated for 60 minutes at 37° C. in serum-free RPMI with various concentrations of APC, TR47 or P3R. Following DPBS wash, cells were incubated with LPS (lipopolysaccharide) (1 μg/mL) for 3 hours at 37° C. in serum-free RPMI to prime the inflammasome. After a DPBS wash, to fully activate caspase 1 activity, cells were incubated with ATP (5 mM), in the presence or absence of 10 μM YVAD (caspase 1 inhibitor), and 2.5 μM ZVAD (pan-caspase inhibitor) for 45 minutes at 37° C., prior to performing the caspase 1 activity assay following the manufacturer's (Promega) directions; caspase 1 activity was monitored as luminescence changes due to substrate hydrolysis and reported as relative luminescent units (RLU).^15 In select experiments, caspase 1 activity of experimental conditions were normalized to YVAD (caspase 1 inhibitor) conditions and expressed as normalized caspase 1 activity.

| Sequence | effect of blocking EPCR on inhibition of caspase 1 activity [1] | effect of PAR1 blocking antibody ATAP2 on reduction of caspase 1 activity [2] | effect of PAR1 small molecule antagonist SCH79797 on reduction of caspase 1 activity [2] | effect of PAR1 blocking antibody WEDE15 on reduction of caspase 1 activity [2] |
| --- | --- | --- | --- | --- |
| GAPPNSFEEFPFSALEGWTGATIT [P3R, PAR3-derived 24-mer peptide] | though trending, did not reach significance | None of the PAR1-targeted inhibitors statistically significantly reduced the anti-inflammatory activity | None of the PAR1-targeted inhibitors statistically significantly reduced the anti-inflammatory activity | None of the PAR1-targeted inhibitors statistically significantly reduced the anti-inflammatory activity |
| NPNDKYEPFWEDEEKNESGL [TR47, PAR1-derived 20 amino acid peptide] | significant loss in their inhibition of caspase 1 activity | not by ATAP2 | inhibited by SCH79797 and WEDE15 | inhibited by SCH79797 and WEDE15 |
